Where a SMILES comes first, the peptide text is derived from it. [ ]: non-standard residue; d: D form. The star is where a group is joined. X1 = O=C(O)CN1CCN(CC(=O)O)CC(Cc2ccc(NC(=S)*)cc2)N(CC(=O)O)CC1; 2Nal = N[C@@H](Cc1ccc2ccccc2c1)C(=O)O; dNMeK = CN[C@H](CCCCN)C(=O)O
Assays:
[1] = assay type: physicochemical
Procedure: ^68Ga-yG5-RGD, ^68Ga-yG5, or ^68Ga-RGD (740 kBq each) were separately added to a mixture of 1.0 mL n-octanol and 1.0 mL PBS, and then the mixtures were thoroughly vortexed for 5 min. Each sample was then centrifuged at 8000 rpm for 4 min. Each sample (100 μL) in organic phase and aqueous phase was collected separately in tubes, 5 tubes for each phase. Radioactive counts per tube of samples were measured by gamma counter, and logP values were calculated by the following formula: logP = log10 (counts in n-octanol/counts in PBS).

[2] = in vivo; set-up: species or system BALB/c nude mice; settings: female, BALB/c nude, mouse, iv, total radioactivity
Procedure: All animal studies were conducted in accordance with the guidelines of the Institutional Animal Care and Use Committee of Tongji Medical College of Huazhong University of Science and Technology (2021-S2875; 1 February 2021). Female BALB/c nude mice (5–6 weeks old) were purchased from Beijing HFK Bioscience Co., Ltd. (Beijing, China) and were raised in a specific pathogen-free barrier system. For subcutaneous tumor xenograft model, 1 × 10^7 cells of BxPC3 or MX-1 in 100 μL PBS were injected into the right flanks of nude mice. Animal models were used for follow-up experiments when tumors reached 8~10 mm in diameter. The group setting was kept consistent with PET/CT scan. Each group of mice (n = 4) was injected via tail vein with probes (5.55~7.4 MBq, 150 μL) or co-injected with probes and blockers (10 mg/kg). Mice were euthanized by cervical dislocation under anesthesia 2 h post-injection. Subsequently, tissues of interest were collected, washed, weighed, and counted by a gamma counter. After decay correction, uptake of tissues was expressed as the percentage of injected dose per gram of tissue (%ID/g).

[3] = Stability in PBS (radio-HPLC); assay type: physicochemical; settings: 1.85 MBq in 300 μL, 2 h, 37 °C
Procedure: (§1) The ^68Ga-yG5-RGD (1.85 MBq, 5 μL) or ^68Ga-yG5 (1.85 MBq, 5 μL) was separately added to 300 μL of PBS or normal human fresh serum, incubated for 2 h at 37 °C. After incubation, the PBS sample was subjected to HPLC for radiochemical purity under the conditions described above. An equal volume of anhydrous acetonitrile was added to serum sample, mixed, and then centrifuged at 13,000 g for 10 min to fully precipitate protein. Following this, the supernatant was collected and authenticated by HPLC.

[4] = assay type: in vitro ADME, human
Procedure: as §1

[5] = system: BxPC3 cells; experiment: Cell uptake in BxPC3 cells; assay type: cell-based, human; settings: 74 kBq/well, 30 min, 1 h and 2 h, all p < 0.001, n = 3
Procedure: (§2) BxPC3 cells in the logarithmic growth phase were harvested, counted, and seeded onto 24-well plate with 2 × 10^5 cells/well and cultured overnight. The original culture medium was discarded and fresh DMEM (serum and antibiotic-free) was then added to continue culturing for 0.5 h. Subsequently, each well was separately added ^68Ga-yG5-RGD, ^68Ga-yG5, or ^68Ga-RGD (74 kBq/well, 50 μL) and incubated for 30 min, 1 h, and 2 h (three replicate wells/each time point). At the end of incubation, the supernatant and the cell lysate were separately collected and radioactivity was measured by gamma counter. The cell uptake was expressed as the percentage of total applied radioactivity. Cell uptake study experiment was also performed using MX-1 as a control group for ^68Ga-yG5-RGD. The detailed experimental procedure was the same as above.

[6] = system: MX-1 cells; experiment: Cell uptake in MX-1 cells (negative control); assay type: cell-based, human; settings: all time points, all p < 0.001
Procedure: as §2

[7] = system: BxPC3 cells; experiment: Cell blocking experiment in BxPC3 cells; assay type: cell-based, human; settings: co-incubated with 1000-fold molar excess of unlabeled RGD, AMD3100 or AMD3100 + RGD, all p < 0.001
Procedure: BxPC3 was used for cell blocking experiments. One group was taken as a control and added only ^68Ga-yG5-RGD (74 kBq/well, 50 μL, 1 pmol). Other groups were incubated with the blocking agents (AMD3100, RGD, AMD3100 + RGD unlabeled, 1000 pmol/10 μL, and ^68Ga-yG5-RGD (74 kBq/well, 50 μL). The rest of the procedures were carried out as described above.

| SMILES | log P [1] | tissue to tissue ratio at 2 h ([2]; tumor/blood uptake ratio) | tissue to tissue ratio at 2 h ([2]; tumor/kidney uptake ratio) | tissue to tissue ratio at 2 h ([2]; tumor/liver uptake ratio) | tissue to tissue ratio at 2 h ([2]; tumor/muscle uptake ratio) | proportion of intact tracer [3] | metabolic-free Gallium-68 observed [4] | cellular uptake in BxPC3 cells [5] | cellular uptake in MX-1 cells [6] | cellular uptake in BxPC3 cells with blockers [7] |
| --- | --- | --- | --- | --- | --- | --- | --- | --- | --- | --- |
| N=C(N)NCCC[C@@H]1NC(=O)[C@H](CCCCNC(=S)Nc2ccc(CC3CN(CC(=O)O)CCN(CC(=O)O)CCN3CC(=O)O)cc2)NC(=O)[C@@H](Cc2ccc(O)cc2)NC(=O)[C@H](CC(=O)O)NC(=O)CNC1=O (some centres unmarked) [^68Ga-RGD, metal not drawn, reference compound] | −3.22 ± 0.02 | 10.8 ± 2.04 | 0.77 ± 0.06 | 0.96 ± 0.15 | 8.61 ± 0.61 |  |  |  |  |  |
| CN1C(=O)[C@@H](Cc2ccc(O)cc2)NC(=O)CNC(=O)[C@H](Cc2ccc3ccccc3c2)NC(=O)[C@H](CCCNC(=N)N)NC(=O)[C@H]1CCCCNC(=S)Nc1ccc(CC2CN(CC(=O)O)CCN(CC(=O)O)CCN2CC(=O)O)cc1 (some centres unmarked) [^68Ga-yG5, metal not drawn] (cyclo([2Nal]G[dY][dNMeK](X1)R)) | −0.35 ± 0.09 | 2.01 ± 0.43 | 0.34 ± 0.06 | 0.13 ± 0.04 | 3.86 ± 1.29 |  |  |  |  |  |
| CN1C(=O)[C@@H](Cc2ccc(O)cc2)NC(=O)CNC(=O)[C@H](Cc2ccc3ccccc3c2)NC(=O)[C@H](CCCNC(=N)N)NC(=O)[C@H]1CCCCNC(=O)C(CCn1nnc2c1CCC1C(CC2)C1COC(=O)NCCOCCOCCOCCOCCC(=O)NCCCC[C@@H]1NC(=O)[C@@H](Cc2ccc(O)cc2)NC(=O)[C@H](CC(=O)O)NC(=O)CNC(=O)[C@H](CCCNC(=N)N)NC1=O)N1CCN(CC(=O)O)CCN(CC(=O)O)CC1 (some centres unmarked) [^68Ga-yG5-RGD, metal not drawn] | −2.47 ± 0.04 | 14.5 ± 0.8 | 0.9 ± 0.29 | 0.46 ± 0.1 | 13.6 ± 0.81 | greater than 99% | less than 1% | significantly higher than that of ^68Ga-RGD and ^68Ga-yG5 | significantly lower than that of BxPC3 cells | significantly decreased |
